The test system of data set [1] is ATF2 localization and PRKCD/VE‐cadherin axis in HUVECs. Kind of data set: ALK14 versus myristic acid, ATF2 localization and PRKCD/VE-cadherin axis. It counts as cell-based. The following applies: each 10 μg/ml, 12 hours. The protocol:
Protein samples were separated by SDS/PAGE and transferred to the PVDF membrane. The membrane was blocked with 5% BSA in TBST (25 mM Tris, pH 7.4, 150 mM NaCl, 0.1% Tween‐20), incubated with primary antibodies and secondary antibodies in TBST, and then treated with ECL Plus western blotting detection reagents (Bio‐rad). The chemiluminescence signal was analyzed by ChemiDoc imaging system (Bio‐rad).
HMEC‐1, obtained from Shanghai Zhong Qiao Xin Zhou Biotechnology, was cultured in MCDB131 medium containing 10% foetal bovine serum (FBS) and 1% antibiotics (penicillin and streptomycin) in 5% CO2 incubator at 37 °C. HUVEC, obtained from Shanghai Zhong Qiao Xin Zhou Biotechnology, were cultured in ECM medium containing 5% FBS, 1% antibiotics (penicillin and streptomycin) and 1% endothelial cell growth supplement (ECGS) in 5% CO2 incubator at 37 °C. HEK 293T were obtained from ATCC, and cultured in Dulbecco's modified Eagle's medium (DM EM) containing 10% FBS and 1% antibiotics (penicillin and streptomycin) in 5% CO2 incubator at 37 °C. The SIRT6 KO 293T cells were constructed by Hanbio Biotechnology, the SIRT6 gRNA was 5′‐[…]‐3′. SIRT6 overexpression and knockdown recombinant lentivirus were constructed by Hanbio Biotechnology, the vector pGLV3‐harboring SIRT6 and SIRT6 shRNA (5′‐[…]‐3′) were used for lentivirus packaging. […]

The subject of the next data set is B‐H3K9^Myr‐5R. Kind of data set: Demyristoylase activity by HPLC. To be noted: UV 220 nm, 6 µM enzyme, 450 µM peptide, Tris‐HCl pH 8.0, 6 mM MgCl2, 1 mM NAD^+, 30 °C, 4 h. It counts as biochemical. How it is done:
(§1) The expression plasmids were transformed in the E.coli Arctic Express (DE3) cells, respectively. The E.coli cells were cultured at 37 °C in 2X YT culture medium. When OD600 reached 0.8, cells were induced by 0.2 mM isopropyl‐1‐thio‐β‐D‐galactopyranoside (IPTG) for 18–20 h at 16 °C. Then, cells were harvested by centrifugation at 6000 rpm for 10min at 4 °C and resuspended in lysis buffer (20 mM Tris‐HCl pH 7.2, 500 mM NaCl, 2% glycerol). Cells were lysed by a high‐pressure homogenizer (Avestin), and centrifuged at 15 000 rpm for […] min at 4 °C. The supernatants were incubated with Ni^+ Sepharose (GE Healthcare) which was pre‐equilibrated in lysis buffer. The resin was washed with 20 column volumes of lysis buffer supplemented with 50 mM imidazole, and then the recombinant proteins were eluted with lysis buffer supplemented with 500 mM imidazole. The eluted fractions were pooled, buffer exchanged (20 mM Tris‐HCl pH 7.2, 250 mM NaCl, 10% glycerol), and concentrated. Finally, the endotoxin was removed by the Pierce High‐Capacity Endotoxin Removal Spin Columns. The purified proteins were stored at −80 °C.
(§2) The peptides B‐H3K9‐5R (biotin‐[…]), B‐H3K9^Ac‐5R (biotin‐KQTARK^Ac[…]), and B‐H3K9^Myr‐5R (biotin‐KQTARK^Myr[…]) were synthesized. Five arginine residues were added to ensure that the peptides were soluble in water. SIRT6 protein SIRT6 and mutants (6 µM) were incubated with the peptides (450 µM) in the reaction system ([…] Tris‐HCl pH 8.0, 6 mM MgCl2, 1 mM NAD^+) at 30 °C. After 4 h, the reactions were terminated by adding 4% TFA at 37 °C for 10 min. After centrifuging at 12 000rpm for 15 min at room temperature, the supernatants were collected and analyzed via HPLC using an Aeris peptide XB‐C18 column (150 × 4.6 mm, 3.6 µm; Phenomenex, USA). The mobile phase consisted of solvent A (0.1% TFA in HPLC‐grade H2O) and solvent B (0.1% TFA in HPLC‐grade acetonitrile). Peptides were eluted in a linear gradient of 0–90% solvent B at 1 ml min^−1 over 19 min. The column temperature was set at 25 °C, and the peptides were monitored with UV light (220 nm).

Another data set concerns B‐H3K9^Ac‐5R. In words: Deacetylase activity by HPLC. It counts as biochemical. The following applies: UV 220 nm, 6 µM enzyme, 450 µM peptide, Tris‐HCl pH 8.0, 6 mM MgCl2, 1 mM NAD^+, 30 °C, 4 h. The protocol: as §1, §2
Data set [2] concerns aortic endothelium (VE-Cadherin junction continuity). In words: En face VE-Cadherin staining of descending aortas. The data set is classed as in vivo, mouse. The protocol: Endothelial specific Sirt6 KO (ecSirt6^−/− ) mice (on a C57/Bl6J background) were developed by Cyagen Biosciences lnc. and litter of wild‐type (WT) mice served as control. Genotyping by tail preparation and PCR were performed at 2 weeks of age. All animal procedures were conducted under animal welfare guidelines and were approved by the Animal Ethics Committee of Zhongshan Hospital, Fudan University (EARIA‐389).
The cultivation and collection of mice were described above. Remove the outer membrane and longitudinally cut the thoracic aorta of mice for surface staining. After being fixed in 4% paraformaldehyde for 20 min, 0.5% Triton X‐100 was infiltrated into PBS for 30 min, and 10% normal goat serum was blocked in PBS for 1 h. Then, the corresponding primary antibody was incubated overnight at 4 °C. Then, wash HUVECs or tissues three times with PBS, coupled with the corresponding Alexa Fluor 488‐conjugated goat anti‐rabbit IgG (Thermo, cat#A‐11008) or Alexa Fluor 594 ‐conjugated goat anti‐mouse IgG (Thermo, cat#A‐11 005) (1:500; at room temperature, place in a closed solution for 1 h). Cover the slide with DAPI containing fluorine shielding adhesive medium. Randomly select representative images from each group. Fluorescence signal detection was performed using Leica confocal laser scanning microscope (Leica SP8).

The test system of data set [3] is SIRT6. To be noted: SIRT6 inhibitor, cited from earlier work. The source says: Table 2 The inhibitors of SIRT6 were represented with structure, IC50, category, company, indications, and reference. | column: IC50
Data set [4] concerns the target T1, SIRT6 (Homo sapiens, UniProt Q8N6T7).
T1 construct: the full‐length human SIRT6 (1‐355aa) with the flag tag at the C‐terminus; His-tag (N); made in house; host or cells: E. coli ArcticExpress (DE3), pET28a
Kind of data set: Biolayer interferometry, SIRT6. It counts as binding. To be noted: BLI, PBS-T, cofactor 5 mM. The source says:
(§3) The plasmid pUC57‐SIRT6 contained the full‐length human SIRT6 (1‐355aa) with the flag tag at the C‐terminus. The PCR fragment SIRT6‐Flag from pUC57‐SIRT6 was inserted into pET28a vector to obtain the plasmid pET28a‐SIRT6. Then the pET28a‐SIRT6G60A, pET28a‐SIRT6R65A, pET28a‐SIRT6S56Y, and pET28a‐SIRT6H133Y expression plasmids were obtained through site‐directed mutagenesis by PCR. These SIRT6 expression plasmids were used for SIRT6 expression and purification in E.coli.
(§4) The expression plasmids were transformed in the E.coli Arctic Express (DE3) cells, respectively. The E.coli cells were cultured at 37 °C in 2X YT culture medium. When OD600 reached 0.8, cells were induced by 0.2 mM isopropyl‐1‐thio‐β‐D‐galactopyranoside (IPTG) for 18–20 h at 16 °C. Then, cells were harvested by centrifugation at 6000 rpm for 10min at 4 °C and resuspended in lysis buffer (20 mM Tris‐HCl pH 7.2, 500 mM NaCl, 2% glycerol). Cells were lysed by a high‐pressure homogenizer (Avestin), and centrifuged at 15 000 rpm for room temperature min at 4 °C. […]
(§5) To determinate the affinity of SIRT6 proteins to myristoylated peptides, BLI assays were performed in 96 well plates using an Octet Red96 System. […] Meanwhile, the protein‐peptide affinities were also determined after adding several cofactors (5 mM), such as Mg^2+, Zn^2+, ATP, ADP, AMP, cAMP, NAD^+.
On the technique in general: BLI is a label-free optical method that tracks binding on a fibre tip over time.

The target in the next data set is T2, SIRT6 G60A (Homo sapiens, UniProt Q8N6T7, G60A).
T2 construct: the full‐length human SIRT6 (1‐355aa) with the flag tag at the C‐terminus; made in house; host or cells: E. coli ArcticExpress (DE3), pET28a
T2 sequence (Q8N6T7 whole entry G60A): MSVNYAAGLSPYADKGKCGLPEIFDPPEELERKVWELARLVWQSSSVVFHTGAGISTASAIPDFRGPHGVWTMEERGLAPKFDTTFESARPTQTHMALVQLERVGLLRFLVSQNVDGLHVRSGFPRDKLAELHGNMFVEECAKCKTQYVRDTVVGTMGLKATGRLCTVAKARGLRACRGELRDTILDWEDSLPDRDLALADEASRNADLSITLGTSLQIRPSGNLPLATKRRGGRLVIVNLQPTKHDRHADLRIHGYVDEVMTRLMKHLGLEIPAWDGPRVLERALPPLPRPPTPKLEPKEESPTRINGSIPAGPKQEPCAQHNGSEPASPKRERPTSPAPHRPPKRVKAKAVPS
Kind of data set: Biolayer interferometry, G60A mutant. The data set is classed as binding. To be noted: BLI, Octet Red96, PBS-T, 120 µM biotin peptide on sensor, analyte G60A 0.18 to 5.5 µM.
Source text: as §3, §4, §5

A further data set has as its target T3, SIRT6 H133Y (dSIRT6) (Homo sapiens, UniProt Q8N6T7, H133Y).
T3 construct: the full‐length human SIRT6 (1‐355aa) with the flag tag at the C‐terminus; made in house; host or cells: E. coli ArcticExpress (DE3), pET28a
Kind of data set: Co-immunoprecipitation enrichment of myristoylated peptide. It counts as binding. To be noted: Co-IP with negative control peptide, n=3. How it is done:
SIRT6/mutants (10 µM) were incubated with B‐H3K9^Myr‐5R or B‐H3K9‐5R (7 µM) in different IP buffers based on buffer (1X PBS, 0.2% tween‐20) at 30 °C for 4h. Then the mixtures were incubated with magnetic flag‐beads at room temperature for 2h. Then, tubes were placed on a magnetic rack for 1 minute, and the supernatants were discarded. The beads were washed three times with an IP buffer and eluted with different elution buffers. The eluants and beads were then analyzed by western blotting with biotin monoclonal antibody or SIRT6 antibody.

Here are results for 14 molecules from paper PMC12591191, “SIRT6 Lysine‐Demyristoylates ATF2 to Ameliorate Vascular Injury via PRKCD/VE‐Cadherin Pathway Regulating Vascular Endothelial Barrier” (Advanced Science, 2025).

Where two headings read alike, the source gives them in different places. Where a SMILES comes first, the peptide text is derived from it. The star is where a group is joined. Biotin = O=C1N[C@H]2[C@H](CS[C@H]2CCCCC(=O)*)N1; Myristoyl = CCCCCCCCCCCCCC(=O)*

T1 sequence (Q8N6T7 whole entry): as the sequence (Q8N6T7 whole entry G60A) above, with A60G counted along it
T3 sequence (Q8N6T7 whole entry H133Y): as the sequence (Q8N6T7 whole entry G60A) above, with A60G, H133Y counted along it

With `CCCCCCCCCCCCCC(=O)O` [natural myristic acid, Myristic acid], the “impact on ATF2 localization and PRKCD/VE‐cadherin axis, myristic acid versus ALK14” value in data set [1] is “equivalent impacts”.

Take R65A: SIRT6 R65A mutant: the demyristoylase activity result in the data set on B‐H3K9^Myr‐5R is “lacked demyristoylase activity”. Moreover, in the data set on B‐H3K9^Ac‐5R, the deacetylase activity result was “weak deacetylase activity”.

In the case of `Cc1nn(C)c(C)c1NS(=O)(=O)c1c(Cl)cc(-c2ccnc(N3CCNCC3)c2)cc1Cl` [DDD85646], in data set [2] (100 mg kg^−1 day^−1, n = 6–8), the therapeutic efficacy result is “suboptimal therapeutic efficacy”.

As usually defined, the IC50 is the concentration that gives 50% inhibition. On to Diquercetin, for which the half-maximal inhibitory concentration (IC50) in the data set with SIRT6 [3] (ref [64]) was 130 µM.

For the molecule `Nc1ncnc2c1ncn2[C@@H]1O[C@H](COP(=O)(O)OP(=O)(O)OP(=O)(O)O)[C@@H](O)[C@H]1O` [ATP], the “effect of cofactor on SIRT6 affinity for B‐H3K9^Myr‐5R” value at SIRT6 [4] is reported as “significantly enhanced SIRT6 affinity”.

Turning to `O=C(Nc1ccc(O)c(C(=O)O)c1)c1cccc(NC(=O)c2ccco2)c1` [OSS‐128167], the IC50 with SIRT6 [3] (ref [68]) was 89 µM.

As to “SIRT6 WT: full‐length human SIRT6 (1‐355aa) with the flag tag at the C‐terminus, expressed in E.coli”, the demyristoylase activity result with B‐H3K9^Myr‐5R is “significant demyristoylase activity”. Further, the deacetylase activity result with B‐H3K9^Ac‐5R is given as “weak deacetylase activity”.

In the case of G60A: SIRT6 G60A mutant, the demyristoylase activity entry in the data set on B‐H3K9^Myr‐5R is reported as “strong demyristoylase activity”. Besides, the deacetylase activity entry in the data set with B‐H3K9^Ac‐5R was “without detectable deacetylase activity”.

Regarding `CN1CCN(c2ccc([N+](=O)[O-])c(N)c2)CC1` [5‐(4‐methylpiperazin‐1‐yl)‐2‐nitroaniline], in the data set with SIRT6 [3] (ref [65]), the IC50 is 4.93 µM.

Turning to `Nc1ncnc2c1ncn2[C@@H]1O[C@H](COP(=O)(O)OP(=O)(O)O)[C@@H](O)[C@H]1O` [ADP], the “effect of cofactor on SIRT6 affinity for B‐H3K9^Myr‐5R” value on SIRT6 [4] is reported as “significantly enhanced SIRT6 affinity”.

With S56Y: SIRT6 S56Y mutant, the demyristoylase activity entry with B‐H3K9^Myr‐5R is on record as “lacked both enzymatic activities”. The deacetylase activity result with B‐H3K9^Ac‐5R is given as “lacked both enzymatic activities”.

As usually defined, the Kd is the concentration at which binding is half-saturated. A higher Kd goes with lower affinity. As to `CCCCCCCCCCCCCC(=O)NCCCC[C@H](NC(=O)[C@H](CCCNC(=N)N)NC(=O)[C@H](C)NC(=O)[C@@H](NC(=O)[C@H](CCC(N)=O)NC(=O)[C@H](CCCCN)NC(=O)CCCC[C@@H]1SC[C@@H]2NC(=O)N[C@@H]21)[C@@H](C)O)C(=O)N[C@@H](CO)C(=O)N[C@H](C(=O)NCC(=O)NCC(=O)N[C@@H](CCCCN)C(=O)N[C@@H](C)C(=O)N[C@@H](CCCNC(=N)N)C(=O)N[C@@H](CCCNC(=N)N)C(=O)N[C@@H](CCCNC(=N)N)C(=O)N[C@@H](CCCNC(=N)N)C(=O)N[C@@H](CCCNC(=N)N)C(=O)O)[C@@H](C)O` [B‐H3K9^Myr‐5R] (Biotin-KQTARK(Myristoyl)STGGKARRRRR-OH), binding on SIRT6 G60A was put at a Kd of 1.3 ± 0.11 µM.

Regarding `NC(=O)c1ccc[n+]([C@@H]2O[C@H](COP(=O)([O-])O)[C@@H](O)[C@H]2O)c1` [NMN], the “endothelial damage induced by high‐fat diet in SIRT6‐deficient endothelium” value in data set [2] (NMN 100 mg kg^−1 day^−1, n = 6–8) is “partially rescued endothelial damage”.

Take H133Y: SIRT6 H133Y mutant: the demyristoylase activity entry with B‐H3K9^Myr‐5R is “lacked both enzymatic activities”. In addition, in the data set with B‐H3K9^Ac‐5R, the deacetylase activity result is listed as “lacked both enzymatic activities”. Besides, the “selectivity of H133Y for myristoylated peptide” value with SIRT6 H133Y (dSIRT6) is recorded as “confirmed the selectivity”.
